Legend:
[1] = target: the molecule itself; test: SEC; size-exclusion chromatography after Ni2+ chelation; Bis-Tris buffer, pH 6.75; YhdE eluted at approximately 81 mL, approximately 45 kDa
purified protein [2] = substrate: O=c1ccn([C@@H]2O[C@H](COP(=O)(O)OP(=O)(O)OP(=O)(O)O)[C@@H](O)[C@H]2O)c(=O)[nH]1; test: purified protein; type: biochemical, Escherichia coli; details: 2 mM Mn2+, 20 mM HEPES pH 7.0, 25 °C, 1.5 µM enzyme, apparent Km, Hill coefficient 1.9 (positive cooperativity)
purified protein [3] = substrate: Cc1cn([C@H]2C[C@H](O)[C@@H](COP(=O)(O)OP(=O)(O)OP(=O)(O)O)O2)c(=O)[nH]c1=O; test: purified protein; type: biochemical, Escherichia coli; details: 2 mM Mn2+, 20 mM HEPES pH 7.0, 25 °C, 1.5 µM enzyme, apparent Km, Hill coefficient 2.2 (positive cooperativity)

Protein	stoichiometry N [1]	Km (purified protein [2]) [µM]	Vmax (purified protein [2]) [µM/min]	kcat (purified protein [2]) [s⁻¹]	kcat/Km (purified protein [2]) [M⁻¹ s⁻¹]	Km (purified protein [3]) [µM]	Vmax (purified protein [3]) [µM/min]	kcat (purified protein [3]) [s⁻¹]	kcat/Km (purified protein [3]) [M⁻¹ s⁻¹]
YhdE, a Maf-like protein in Escherichia coli (nucleotide pyrophosphatase) (enzyme, UniProt P25536 1-197, looked up, YhdE, Maf-like protein of Escherichia coli; the open reading frame of yhdE cloned into pFO4 (BamHI/EcoRI); also called recombinant YhdE; source: E. coli BL21(DE3), purified (Ni2+ chelation, size-exclusion chromatography)) MTSLYLASGSPRRQELLAQLGVTFERIVTGIEEQRQPQESAQQYVVRLAREKARAGVAQTAKDLPVLGADTIVILNGEVLEKPRDAEHAAQMLRKLSGQTHQVMTAVALADSQHILDCLVVTDVTFRTLTDEDIAGYVASDEPLDKAGAYGIQGLGGCFVRKINGSYHAVVGLPLVETYELLSNFNALREKRDKHDG	2	–	–	–	–	–	–	–	–
YhdE (Escherichia coli K-12) (protein, dimer in solution ~45 kDa, monomer ~22 kDa; PDB entries are of the E33A mutant) TSLYLASGSPRRQELLAQLGVTFERIVTGIEEQRQPQESAQQYVVRLAREKARAGVAQTAKDLPVLGADTIVILNGEVLEKPRDAEHAAQMLRKLSGQTHQVMTAVALADSQHILDCLVVTDVTFRTLTDEDIAGYVASDEPLDKAGAYGIQGLGGCFVRKINGSYHAVVGLPLVETYELLSNFNALREKRDKHDG	–	500	8400	95	191000	90	3600	43	503000
